Here are results for 10 substances from US20250320281A1.

Assay [1] addresses HIV-1 ADA Env (HIV-1 ADA). Briefly: cell-based or functional assay.
For assay [2], the target named is HIV-1 IAVI_C22 Env on pseudotyped virus (HIV-1 isolate IAVI_C22). Briefly: cell-based or functional assay.
For assay [3], the target named is aMLV envelope on pseudotyped virus (negative control) (aMLV). Briefly: cell-based or functional assay.
In assay [4] the target is HIV-1 92BR020 Env on pseudotyped virus (HIV-1 isolate 92BR020). Briefly: cell-based or functional assay.
Assay [5] concerns the target HIV-1 92TH021 Env on pseudotyped virus (HIV-1 isolate 92TH021). Briefly: cell-based or functional assay.
Assay [6] addresses HIV-1 92RW020 Env (HIV-1 92RW020). Briefly: cell-based or functional assay.
Assay [7] deals with HIV-1 MGRM-C-028 envelope glycoprotein (Env) on pseudovirus (HIV-1). Briefly: cell-based or functional assay.
The target of assay [8] is HIV-1 APV13 envelope glycoprotein (Env) on pseudovirus (HIV-1). Briefly: cell-based or functional assay.
For assay [9], the target named is HIV-1 Env of isolate MGRM-Chronic-B-010 (subtype B pseudovirus) (HIV-1). Briefly: cell-based or functional assay.
The target of assay [10] is HIV-1 JRFL envelope glycoprotein (Env) on pseudovirus (HIV-1). Briefly: cell-based or functional assay.
The target of assay [11] is HIV-1 Env of isolate JR-FL (subtype B pseudovirus) (HIV-1). Briefly: cell-based or functional assay.
For assay [12], the target named is HIV-1 MGRM-C-026 envelope glycoprotein (Env) on pseudovirus (HIV-1). Briefly: cell-based or functional assay.
Assay [13] has as its target HIV-1 MGRM-C-027 envelope glycoprotein (Env) on pseudovirus (HIV-1). Briefly: cell-based or functional assay.
The target in assay [14] is HIV-1 MGRM-AG-005 envelope glycoprotein (Env) on pseudovirus (HIV-1). Briefly: cell-based or functional assay.
Assay [15] has as its target HIV-1 Env of isolate MGRM-AG-013 (HIV-1). Briefly: cell-based or functional assay.
The target in assay [16] is HIV-1 MGRM-D-001 envelope glycoprotein (Env) on pseudovirus (HIV-1). Briefly: cell-based or functional assay.
Assay [17] addresses HIV-1 MGRM-D-018 envelope glycoprotein (Env) on pseudovirus (HIV-1). Briefly: cell-based or functional assay.
Assay [18] deals with HIV-1 APV6 envelope glycoprotein (Env) on pseudovirus (HIV-1). Briefly: cell-based or functional assay.
In assay [19] the target is HIV-1 APV17 envelope glycoprotein (Env) on pseudovirus (HIV-1). Briefly: cell-based or functional assay.
The next assay deals with JR-FL gp120 ΔV3 (HIV-1). Briefly: ELISA, antigen-coated wells. A general note: An ELISA detects its analyte on a solid surface through an enzyme-linked reagent.
In assay [20] the target is HIV-1 Env of isolate MGRM-F1-018 (clade F pseudovirus) (HIV-1). Briefly: cell-based or functional assay.
Assay [21] has as its target HIV-1 Env of isolate MG RM-D-012 (clade D), on pseudovirus (HIV-1). Briefly: cell-based or functional assay.
Assay [22] deals with HIV-1 Env of isolate MG RM-D-004 (clade D), on pseudovirus (HIV-1). Briefly: cell-based or functional assay.
In assay [23] the target is HIV-1 Env of pseudovirus 92WR021 (subtype A) (HIV-1). Briefly: cell-based or functional assay.
The target of assay [24] is HIV-1 Env of pseudovirus 92RW008 (subtype A) (HIV-1). Briefly: cell-based or functional assay.
Assay [25] addresses HIV-1 Env of isolate MGRM-Chronic-B-002 (HIV-1). Briefly: cell-based or functional assay.
Assay [26] deals with HIV-1 Env of isolate CAAN.A2 (HIV-1). Briefly: cell-based or functional assay.
Assay [27] deals with HIV-1 Env of isolate MG RM-D-028 (clade D), on pseudovirus (HIV-1). Briefly: cell-based or functional assay.
For assay [28], the target named is HIV-1 Env of isolate MG RM-D-013 (clade D), on pseudovirus (HIV-1). Briefly: cell-based or functional assay.
In assay [29] the target is HIV-1 Env of isolate MG RM-D-019 (clade D), on pseudovirus (HIV-1). Briefly: cell-based or functional assay.
Assay [30] concerns the target HIV-1 Env of isolate MG RM-D-016 (clade D), on pseudovirus (HIV-1). Briefly: cell-based or functional assay.
The target in assay [31] is HIV-1 Env of isolate MG RM-D-014 (clade D), on pseudovirus (HIV-1). Briefly: cell-based or functional assay.
Assay [32] concerns the target HIV-1 Env of pseudovirus 92WR020 (subtype A) (HIV-1). Briefly: cell-based or functional assay.
The target of assay [33] is HIV-1 Env of isolate MG RM-D-026 (clade D), on pseudovirus (HIV-1). Briefly: cell-based or functional assay.
In assay [34] the target is HIV-1 Env of pseudovirus 92UG031 (subtype A) (HIV-1). Briefly: cell-based or functional assay.
The target of assay [35] is HIV-1 Env of isolate MGRM-C-027 (clade C pseudovirus) (HIV-1). Briefly: cell-based or functional assay.

Chain of 1443_C16 (PG16) (TCN-116) (antibody) (VH): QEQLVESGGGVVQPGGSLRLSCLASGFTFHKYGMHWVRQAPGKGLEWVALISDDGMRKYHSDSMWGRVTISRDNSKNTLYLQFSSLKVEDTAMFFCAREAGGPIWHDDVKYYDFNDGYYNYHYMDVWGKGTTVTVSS
Chain of 1443_C16 (PG16) (TCN-116) (antibody) (VL): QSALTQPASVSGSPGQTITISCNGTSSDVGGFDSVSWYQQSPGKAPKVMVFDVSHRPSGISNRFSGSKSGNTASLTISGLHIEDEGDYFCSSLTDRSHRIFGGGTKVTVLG
Chain of 5345_I01 (PGT-137) (antibody) (VH): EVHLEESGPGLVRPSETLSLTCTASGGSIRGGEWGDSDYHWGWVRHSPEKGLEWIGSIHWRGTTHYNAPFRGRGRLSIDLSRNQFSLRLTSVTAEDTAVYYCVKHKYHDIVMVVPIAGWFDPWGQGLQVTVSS
Chain of 5345_I01 (PGT-137) (antibody) (VL): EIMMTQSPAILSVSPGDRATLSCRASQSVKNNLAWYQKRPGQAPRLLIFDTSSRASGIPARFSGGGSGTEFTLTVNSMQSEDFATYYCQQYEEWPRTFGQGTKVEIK
Chain of 5329_C19 (PGT-136) (antibody) (VH): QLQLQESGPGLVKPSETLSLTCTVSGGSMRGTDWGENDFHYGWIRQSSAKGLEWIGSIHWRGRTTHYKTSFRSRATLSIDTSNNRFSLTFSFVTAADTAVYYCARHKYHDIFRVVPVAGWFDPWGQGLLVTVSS
Chain of 5329_C19 (PGT-136) (antibody) (VL): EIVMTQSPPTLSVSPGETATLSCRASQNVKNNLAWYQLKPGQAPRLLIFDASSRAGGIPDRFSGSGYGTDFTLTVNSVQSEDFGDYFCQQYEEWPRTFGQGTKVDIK

For 1443_C16 (PG16) (TCN-116) (antibody), the IC50 (ug/ml), pseudovirus neutralization, TZM-bl assay in [1] is 0.004 µg/mL; in assay [6], 0.09 µg/mL. Moreover, the Neutralizing Antibody Assay: IC50; Virus/Ab Incubation 1 hour in assay [2] is 0.114 µg/mL; in assay [3] it was > 50 µg/mL; in assay [4], > 50 µg/mL; in assay [5] it was 0.136 µg/mL. The Neutralizing Antibody Assay: IC50; Virus/Ab Incubation 18 hour in assay [2] is 0.106 µg/mL; in assay [3], > 50 µg/mL; in assay [4] it was > 50 µg/mL; in assay [5] it was 0.0435 µg/mL.
In general, IC50 refers to the concentration at which inhibition is half-maximal. Low readings indicate inhibition by little substance, high ones a need for much substance. On to 5141_B17 (PGT-126) (antibody), for which the IC50, pseudovirus neutralization in assay [7] was determined as 0.283 µg/mL; in assay [8] it was 0.012 µg/mL; in [10], 0.014 µg/mL; in assay [12], 0.0076 µg/mL; in assay [13], 1.14 µg/mL; in [14], 1.35 µg/mL. Moreover, the IC50, pseudovirus neutralization in [16] was 0.0639 µg/mL; in assay [17], 0.0093 µg/mL; in assay [18], 0.0249 µg/mL; in [19], 0.501 µg/mL. Besides, the IC80 (pseudovirus neutralization) in assay [7] was 2.62 µg/mL; in [8], 0.0411 µg/mL; in assay [10], 0.0454 µg/mL; in assay [12], 0.0345 µg/mL; in assay [13], > 10 µg/mL; in assay [14] it was > 10 µg/mL. For the same substance, the IC80 (pseudovirus neutralization) in assay [16] came to 0.333 µg/mL; in assay [17] it was 0.0391 µg/mL; in [18] it was 0.0681 µg/mL; in [19], 4.43 µg/mL. In addition, the IC90 (pseudovirus neutralization) in assay [7] is > 10 µg/mL; in assay [8], 0.084 µg/mL; in [10], 0.09 µg/mL; in assay [12], 0.0831 µg/mL; in assay [13], > 10 µg/mL; in assay [14] it was > 10 µg/mL. The IC90 (pseudovirus neutralization) in assay [16] was 0.832 µg/mL; in assay [17], 0.0918 µg/mL; in assay [18], 0.123 µg/mL; in assay [19], > 10 µg/mL. Besides, the IC95 (pseudovirus neutralization) in [7] is > 10 µg/mL; in [8], 0.162 µg/mL; in [10] it was 0.169 µg/mL; in [12], 0.185 µg/mL; in assay [13] it was > 10 µg/mL; in [14], > 10 µg/mL. For the same substance, the IC95 (pseudovirus neutralization) in assay [16] was 1.8 µg/mL; in [17], 0.205 µg/mL; in assay [18], 0.213 µg/mL; in assay [19], > 10 µg/mL. Further, the values for the IC50 (µg/mL), pseudovirus neutralization in assay [9] and in [11] were 0.005 µg/mL and 0.014 µg/mL, respectively. In assay [15], this substance had an IC50 of 0.008 µg/mL.
In general, EC50 refers to the concentration needed to bring the measured effect to its halfway point. Read a high EC50 as a need for much substance. With 5343_B08 (PGT-135) (antibody), the EC50 with JR-FL gp120 ΔV3 (HIV-1) stood at 0.2 µg/mL.
Same read-out and setting: for 4838_L06 (PGT-121) (antibody) the value was > 10 µg/mL.
On the same count and under the same terms, under 5345_I01 (PGT-137) (antibody) stands 0.1 µg/mL; under 5114_A19 (PGT-128) (antibody), 7.8 µg/mL.
For the substance 1496_C09 (PG9) (TCN-109) (antibody), the IC50 (µg/mL), pseudovirus neutralization in [20] came out at 0.019 µg/mL; in assay [21] it was 16.2 µg/mL; in assay [22] it was 0.06 µg/mL; in assay [25] it was 3.44 µg/mL; in [26] it was 19.3 µg/mL; in [27], 20.2 µg/mL. Also, the IC50 (µg/mL), pseudovirus neutralization stood at 0.021 µg/mL in assay [28]; 0.038 µg/mL in [29]; 0.098 µg/mL in [30]; 0.023 µg/mL in assay [31]; 23.7 µg/mL in assay [33]; 5.36 µg/mL in assay [35]. Besides, the IC50, pseudovirus neutralization was 0.027 µg/mL in [23], 0.006 µg/mL in assay [24], 0.141 µg/mL in assay [32] and 3.6 µg/mL in [34]. Moreover, the IC50 (ug/ml), pseudovirus neutralization, TZM-bl assay was determined as 0.2 µg/mL in assay [1] and 0.1 µg/mL in assay [6]. For the same substance, the results for the Neutralizing Antibody Assay: IC50; Virus/Ab Incubation 1 hour in [2] and in assay [5] were 24.9 µg/mL and 0.0612 µg/mL, respectively. Moreover, the Neutralizing Antibody Assay: IC50; Virus/Ab Incubation 18 hour was determined as 2.11 µg/mL in assay [2] and 0.0571 µg/mL in assay [5].
For PGV04 (antibody), the IC50 (µg/mL), pseudovirus neutralization in [20] is 0.027 µg/mL; in [21], 0.125 µg/mL; in [22] it was 43.2 µg/mL; in assay [25] it was 0.142 µg/mL; in assay [26] it was 2.26 µg/mL; in [27] it was 1.01 µg/mL. Besides, the IC50 (µg/mL), pseudovirus neutralization in assay [28] stood at 0.088 µg/mL; in [29], 0.35 µg/mL; in [30] it was 0.201 µg/mL; in [31], 0.194 µg/mL; in [33] it was 1.76 µg/mL; in assay [35], 2.76 µg/mL. Also, the IC50, pseudovirus neutralization was 0.038 µg/mL in assay [23], 0.014 µg/mL in assay [24], 0.055 µg/mL in assay [32] and 4.46 µg/mL in [34].
Turning to 1495_C14 (PGC14) (antibody), the Neutralizing Antibody Assay: IC50; Virus/Ab Incubation 1 hour in assay [2] is > 50 µg/mL; in assay [3] it was > 50 µg/mL; in assay [4], 1.17 µg/mL; in assay [5], > 50 µg/mL. Moreover, the Neutralizing Antibody Assay: IC50; Virus/Ab Incubation 18 hour is 13.4 µg/mL in assay [2], > 50 µg/mL in assay [3], 0.244 µg/mL in assay [4] and > 50 µg/mL in [5].
On to 5329_C19 (PGT-136) (antibody), for which the EC50 in the assay with JR-FL gp120 ΔV3 (HIV-1) was found to be 0.1 µg/mL.
